The data set has as its target L30 (ribosomal protein L30) wild-type (rat) (UniProt P62890). In words: EMSA. The note with it: 30 mM Tris-HCl pH 8.0, 75 mM KCl, 5 mM MgCl2, 1 mM DTT, 0.04 ug/uL BSA, 10% glycerol, 50 ng/uL yeast tRNA, 30 C 15 min; EMSA gels 0.5X TBE at 4 C; RNase ….

The substance PHGPx SECIS 102 nt (REMSA) showed a Kd of 490 nM.

The values above are taken from article PMC3706390.
